Our source for the FcγRI binding ability relative to hGH-IgG4Fc-wt (fold of hGH-IgG4Fc-wt) values is patent US20160108105A1.

The target of the assay is FcγRI (UniProt P12314). Put plainly: ELISA, coated protein, soluble FcγRI 2 µg/ml. On the technique in general: ELISA stands for enzyme-linked immunosorbent assay.
Sequence of UniProt P12314 (P12314 16-288 limits assumed): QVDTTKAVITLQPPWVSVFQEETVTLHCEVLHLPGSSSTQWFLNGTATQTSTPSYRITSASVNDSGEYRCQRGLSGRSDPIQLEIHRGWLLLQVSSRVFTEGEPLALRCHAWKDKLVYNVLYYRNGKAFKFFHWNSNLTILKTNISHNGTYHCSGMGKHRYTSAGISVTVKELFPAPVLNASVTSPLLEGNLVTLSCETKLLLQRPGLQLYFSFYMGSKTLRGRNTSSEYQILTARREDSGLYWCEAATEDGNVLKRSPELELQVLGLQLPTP

As to “hGH-chimeric IgG4 variant: 4 amino acids at the N-terminus of IgG4 Fc CH2 domain replaced with 2 amino acids of IgD CH2 domain (Fc fusion)”, the FcγRI binding ability relative to hGH-IgG4Fc-wt (fold of hGH-IgG4Fc-wt) is 0.5.
